Test results: article doi:10.1101/2020.11.06.371997

Tests used:
Trf2ΔN-FG3 (UmTrf2) [1] = target: T1, Trf2ΔN-FG3 (UmTrf2) (Ustilago maydis, UniProt A0A0D1E1Z3 415-1528); assay: EMSA
Trf2ΔN-FG3 (UmTrf2) [2] = target: T1, Trf2ΔN-FG3 (UmTrf2); assay: EMSA; remark: listed apart in the source

Binder | Kd (Trf2ΔN-FG3 (UmTrf2) [1]) [nM] | binding result (Trf2ΔN-FG3 (UmTrf2) [2])
TTAGGG4 duplex (dsDNA) DNA 1: TTAGGGTTAGGGTTAGGGTTAGGG DNA 2: CCCTAACCCTAACCCTAACCCTAA | 20 | –
TTAGGG2 duplex (dsDNA) DNA 1: GGTTAGGGTTAG DNA 2: CTAACCCTAACC | – | no binding
